{"source": "patent US20180051071A1", "binders": {"B1": {"name": "IBL-102 antibody (antibody, mouse IgG1, kappa, V domains shown)", "VH": "EVQLQQSGPELVKPGASVKIFCKASGYTFTDYNMDWVKQSHGKRLEWIGDINPNTGVTIDNPKFKGKATLTVDESSSTVYMELRSLSSEDTAVYYCARLPDNYVMDYWGQGTSVTVSA", "VL": "DVVMTQTPLSLPVSLGDQASISCRCSQSLVHRNGNTNLHWYLQKSGQSPKLLIYKVSNRFSGVPDRFSGSGSGTDFTLKISRVEAEDLGVYFCSQSTYVPLTFGVGTKLELKR"}}, "test_in_all_cases": "sandwich EIA: 82E1 capture, HRP-labelled IBL-102; antigen 4000 pg/mL read on the E22P-Aβ42 standard curve", "key": {"[1]": {"biological_target": "A21P-Aβ42 (Homo sapiens (Human)) (UniProt P05067)"}, "[2]": {"biological_target": "D23P-Aβ42 (Homo sapiens (Human)) (UniProt P05067)"}, "[3]": {"biological_target": "E22V-Aβ42 (Homo sapiens (Human)) (UniProt P05067)"}, "[4]": {"biological_target": "G25P-Aβ42 (Homo sapiens (Human)) (UniProt P05067)"}, "[5]": {"biological_target": "M35P-Aβ42 (Homo sapiens (Human)) (UniProt P05067)"}, "[6]": {"biological_target": "V24P-Aβ42 (Homo sapiens (Human)) (UniProt P05067)"}}, "data": [{"binder": "B1", "values": [{"measurement": "cross-reaction rate", "setting": "[1]", "result": 0.27, "unit": "%"}, {"measurement": "cross-reaction rate", "setting": "[2]", "result": 0.5, "unit": "%"}, {"measurement": "cross-reaction rate", "setting": "[3]", "result": 0.28, "unit": "%"}, {"measurement": "cross-reaction rate", "setting": "[4]", "result": 0.53, "unit": "%"}, {"measurement": "cross-reaction rate", "setting": "[5]", "result": 0.68, "unit": "%"}, {"measurement": "cross-reaction rate", "setting": "[6]", "result": 0.33, "unit": "%"}]}]}
